This note sets out measurements from publication PMC7475178, “Dynamic regulation of anthocyanin biosynthesis at different light intensities by the BT2-TCP46-MYB1 module in apple”.

This data set concerns the target T1, MdMYB1-HIS (Malus domestica, UniProt M1UZJ0 1-243).
T1 sequence: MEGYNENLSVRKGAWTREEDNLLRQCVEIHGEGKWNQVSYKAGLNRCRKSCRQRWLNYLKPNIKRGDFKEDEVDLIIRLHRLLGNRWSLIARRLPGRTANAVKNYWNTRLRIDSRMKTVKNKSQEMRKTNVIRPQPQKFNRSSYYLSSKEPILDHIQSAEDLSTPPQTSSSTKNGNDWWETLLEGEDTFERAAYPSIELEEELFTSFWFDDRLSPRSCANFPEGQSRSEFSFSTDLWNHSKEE
Put plainly: EMSA; Proteins and biotin probes mixed in binding buffer for 25 min, acrylamide gel; buffer, salt, pH and temperature not stated. Conditions: protein: recombinant; tags: His (pET32a); label: biotin; blunt.

B1: MdDFR-Probe (dsDNA)
DNA 1: CGTGCGTCAACCGTTAGGAAAGCACG
DNA 2: CGTGCTTTCCTAACGGTTGACGCACG
For B1, the binding result is “binds”.

B2: MdUF3GT-Probe (dsDNA)
DNA 1: ACCTTCCCGTCAGTTATTGCAGGTGG
DNA 2: CCACCTGCAATAACTGACGGGAAGGT
Regarding B2, the binding result was “binds”.
